{
  "source": "patent US20240287172A1",
  "about": "(SCIRHOM, published 2024)",
  "key": {"[1]": {"target": "T1, hiR2-FL-C593A-T7 (human, UniProt Q6PJF5 1-856)", "T1 construct": "reduced surface expression reported", "T1 sequence": "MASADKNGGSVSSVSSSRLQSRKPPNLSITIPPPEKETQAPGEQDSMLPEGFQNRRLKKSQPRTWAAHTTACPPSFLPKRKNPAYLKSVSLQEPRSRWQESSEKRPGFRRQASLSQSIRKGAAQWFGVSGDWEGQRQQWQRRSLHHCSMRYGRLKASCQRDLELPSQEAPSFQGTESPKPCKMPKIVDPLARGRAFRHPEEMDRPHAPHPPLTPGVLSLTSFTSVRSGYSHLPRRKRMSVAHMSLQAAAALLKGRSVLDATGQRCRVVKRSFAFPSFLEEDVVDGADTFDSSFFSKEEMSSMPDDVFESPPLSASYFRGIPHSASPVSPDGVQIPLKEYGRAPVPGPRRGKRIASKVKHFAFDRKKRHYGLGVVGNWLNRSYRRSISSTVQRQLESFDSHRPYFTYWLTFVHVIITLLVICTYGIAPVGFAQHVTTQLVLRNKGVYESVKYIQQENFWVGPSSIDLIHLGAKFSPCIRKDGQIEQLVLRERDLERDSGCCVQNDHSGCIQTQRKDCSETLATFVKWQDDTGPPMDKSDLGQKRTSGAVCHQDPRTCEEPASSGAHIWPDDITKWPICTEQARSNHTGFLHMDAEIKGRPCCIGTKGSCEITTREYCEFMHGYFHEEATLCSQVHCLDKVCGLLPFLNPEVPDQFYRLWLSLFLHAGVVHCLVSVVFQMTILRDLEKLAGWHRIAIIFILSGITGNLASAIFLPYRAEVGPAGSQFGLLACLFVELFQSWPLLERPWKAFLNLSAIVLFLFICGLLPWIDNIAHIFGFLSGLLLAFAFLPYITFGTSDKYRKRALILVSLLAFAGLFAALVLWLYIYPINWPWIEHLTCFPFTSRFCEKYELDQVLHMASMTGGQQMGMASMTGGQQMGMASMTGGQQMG", "test": "FACS on MEF-DKO cells expressing the variant, 3 µg/ml antibody", "in_short": "(§1)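 Two incubations on ice, each 1 hour: test antibody (3 μg/ml) or FACS buffer only, then PE anti-mouse F(ab′)2 at 1:100 in the dark. Centrifugation and washes used 4° C; staining quantified on a flow cytometer.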"}, "[2]": {"target": "T2, hiR2-FL-S583A-T7 (human, UniProt Q6PJF5 1-856)", "T2 sequence": "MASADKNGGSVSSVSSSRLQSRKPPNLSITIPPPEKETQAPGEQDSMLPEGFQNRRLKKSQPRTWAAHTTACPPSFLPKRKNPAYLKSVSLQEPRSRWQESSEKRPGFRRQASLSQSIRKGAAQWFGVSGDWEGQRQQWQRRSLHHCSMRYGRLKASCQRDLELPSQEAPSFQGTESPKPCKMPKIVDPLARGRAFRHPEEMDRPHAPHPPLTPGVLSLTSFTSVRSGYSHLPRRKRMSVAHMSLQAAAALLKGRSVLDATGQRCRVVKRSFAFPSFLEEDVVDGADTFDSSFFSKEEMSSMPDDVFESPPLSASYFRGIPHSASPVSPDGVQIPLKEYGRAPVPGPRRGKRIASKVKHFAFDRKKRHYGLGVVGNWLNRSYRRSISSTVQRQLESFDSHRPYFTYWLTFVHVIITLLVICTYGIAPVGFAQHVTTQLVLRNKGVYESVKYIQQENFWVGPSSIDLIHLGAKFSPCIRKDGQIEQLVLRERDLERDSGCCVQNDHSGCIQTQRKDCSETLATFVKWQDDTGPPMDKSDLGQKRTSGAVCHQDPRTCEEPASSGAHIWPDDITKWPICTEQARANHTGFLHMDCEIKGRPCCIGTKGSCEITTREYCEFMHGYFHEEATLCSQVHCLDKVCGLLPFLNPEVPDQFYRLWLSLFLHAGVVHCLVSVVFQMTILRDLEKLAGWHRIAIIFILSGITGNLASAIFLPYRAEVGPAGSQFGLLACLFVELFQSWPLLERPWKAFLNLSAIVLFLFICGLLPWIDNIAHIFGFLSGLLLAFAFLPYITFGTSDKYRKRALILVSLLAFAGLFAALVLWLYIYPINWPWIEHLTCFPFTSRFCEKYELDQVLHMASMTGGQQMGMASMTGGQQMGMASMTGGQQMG", "test": "FACS on MEF-DKO cells expressing the variant, 3 µg/ml antibody", "in_short": "as §1"}},
  "data": [
    {"binder": "antibody 50 (antibody, V domains shown, mouse IgG, kappa light chain; also called clone #50; purified antibody 50) VH: QVQLQQSGAELVRPGASVKVSCKASGYAFSNYLIEWVKQRPGQGLEWIGVINPGSGFTKYNEKFKGKATLTADKSSSTAYMQLSSLTSEDSAVYFCARGLYRAMDYWGQGTSVTVSS VL: DIQMTQSPASQSASLGESVTITCLASQTIGTWLAWYQQKPGKSPQLLIYAAASLADGVPSRFSGGGSGTKFSFKISSLQAEDFVNYYCQQIYSTPYTFGGGTKLEIK", "values": [
      {"measurement": "loss of binding vs wild type", "setting": "[1]", "result": "≥ 30", "unit": "%"}
    ]},
    {"binder": "antibody 3 (antibody, V domains shown, mouse IgG, kappa light chain; also called clone #3; purified antibody 3) VH: QVTLKESGPGILQPSQTLSLTCSFSGFSLTTFAMGIGWVRQPSGKGLEWLAHIWWDGEKYNNPVLKSRLTISKDTSKNQVFLRIANVDTPDTATYYCARISSIYYIIDNWGQGTSVTVSS VL: DIVLTQSPATLSVTPGHSVSLSCRASQSISNNLHWYQKKSHESPRLLIKYVSQSISGIPSRFSGSGSGTDFTLSINSVETEDFGMYFCQQSYNWPLTFGAGTKLELK", "values": [
      {"measurement": "loss of binding vs wild type", "setting": "[2]", "result": "≥ 30", "unit": "%"}
    ]}
  ]
}
